{"source": "paper PMC3111191", "about": "“Molecular Evolution of Multiple Arylalkylamine N-Acetyltransferase (AANAT) in Fish” (Marine Drugs, 2011)", "proteins": {"B1": {"name": "AANAT2 (Sparus aurata) (protein)", "chain": "MTQQVSGSPFFKPFFLKTPVSLLRQRRHTLPASEFRNLTPQDAISVFEIEREAFVSVSGECPLTLDEVLNFLGQCPELSLGWFEEGQLVAFIIGSGWGKERLSQEAMTQHVPDSPAVHIHVLSVHRHCRQQGKGSILLWRFLQYLRCIPGLRRALLICEEYLVPFYQKAGFKEKGPSAISISNMQFQEMEYTIGGQAYTRRNSGC"}, "B2": {"name": "AANAT2 (Sparus aurata; I157M) (protein)", "chain": "B1 chain with I157M"}, "B3": {"name": "AANAT2 (Sparus aurata; G73T/L69R/N70H/Q74L) (protein)", "chain": "B1 chain with L69R, N70H, G73T, Q74L"}, "B4": {"name": "AANAT2 (Sparus aurata; S123A) (protein)", "chain": "B1 chain with S123A"}}, "note": "Where a chain is given by its changes, count along the chain named. Names may count otherwise."}
{"substrate": "NCCc1c[nH]c2ccc(O)cc12", "test": "colorimetric assay of CoASH release, non-linear regression", "type": "biochemical, Sparus aurata", "conditions": "near-saturating AcCoA; apparent Km", "units": {"Km": "mM"}}
{"protein": "B1", "Km": 2.2}
{"protein": "B2", "Km": 0.94}
{"protein": "B3", "Km": 0.88}
{"protein": "B4", "Km": 0.65}
{"substrate": "NCCc1c[nH]c2ccccc12", "test": "colorimetric assay of CoASH release, non-linear regression", "type": "biochemical, Sparus aurata", "conditions": "near-saturating AcCoA; apparent Km", "units": {"Km": "mM"}}
{"protein": "B1", "Km": 2.0}
{"protein": "B2", "Km": 0.90}
{"protein": "B3", "Km": 1.2}
{"protein": "B4", "Km": 0.65}
